In publication PMC9482650, “Quantitative fragmentomics allow affinity mapping of interactomes” (Nature Communications, 2022):

Target: GRIP2_6, Q9C0E4
Experiment: holdup assay
Set-up: key: below the threshold = too weak to quantify, mostly under pKd 3.1 to 4
Details: plain residues with an end cap or a label only (N-terminal biotin on a linker: ado-ado)

Sequence of GRIP2_6, Q9C0E4 (Q9C0E4 648-740): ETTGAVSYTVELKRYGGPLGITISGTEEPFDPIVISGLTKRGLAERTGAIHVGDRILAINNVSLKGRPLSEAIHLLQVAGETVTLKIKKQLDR

Row | pKd | Binder
1 | below the threshold | LSEFKAMDSI [CTNNA1, P35221]

Target: DLG1_2, Q12959
Experiment: holdup assay
Set-up: key: below the threshold = too weak to quantify, mostly under pKd 3.1 to 4
Details: plain residues with an end cap or a label only (N-terminal biotin on a linker: ado-ado)

Row | pKd | Binder
2 | below the threshold | LSEFKAMDSI [CTNNA1, P35221]

Target: T1, MPDZ_5, O75970
T1 sequence (O75970 695-796, limits assumed, looked up): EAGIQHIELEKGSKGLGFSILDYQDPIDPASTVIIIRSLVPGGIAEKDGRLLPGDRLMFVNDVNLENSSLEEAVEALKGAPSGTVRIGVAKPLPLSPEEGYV
Experiment: holdup assay
Set-up: key: below the threshold = too weak to quantify, mostly under pKd 3.1 to 4
Details: plain residues with an end cap or a label only (N-terminal biotin on a linker: ado-ado)

Row | pKd | Binder
3 | below the threshold | LSEFKAMDSI [CTNNA1, P35221]

Target: T2, SNTA1, Q13424
T2 sequence (Q13424 82-180, limits assumed, looked up): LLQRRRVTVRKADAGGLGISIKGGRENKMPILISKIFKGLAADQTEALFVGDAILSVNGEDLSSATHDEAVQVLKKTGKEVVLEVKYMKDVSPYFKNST
Experiment: holdup assay
Set-up: key: below the threshold = too weak to quantify, mostly under pKd 3.1 to 4
Details: plain residues with an end cap or a label only (N-terminal biotin on a linker: ado-ado)

Row | pKd | Binder
4 | below the threshold | LSEFKAMDSI [CTNNA1, P35221]

Target: T3, MPP6, Q9NZW5
T3 sequence (Q9NZW5 125-219, limits assumed, looked up): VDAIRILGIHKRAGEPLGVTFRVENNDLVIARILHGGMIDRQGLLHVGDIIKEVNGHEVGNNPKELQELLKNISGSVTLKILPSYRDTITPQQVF
Experiment: holdup assay
Set-up: key: below the threshold = too weak to quantify, mostly under pKd 3.1 to 4
Details: plain residues with an end cap or a label only (N-terminal biotin on a linker: ado-ado)

Row | pKd | Binder
5 | below the threshold | LSEFKAMDSI [CTNNA1, P35221]

Target: DLG1_1, Q12959
Experiment: holdup assay
Set-up: key: below the threshold = too weak to quantify, mostly under pKd 3.1 to 4
Details: plain residues with an end cap or a label only (N-terminal biotin on a linker: ado-ado)

Row | pKd | Binder
6 | below the threshold | LSEFKAMDSI [CTNNA1, P35221]

Target: T4, DFNB31_3, Q9P202
T4 sequence (Q9P202 811-907, limits assumed, looked up): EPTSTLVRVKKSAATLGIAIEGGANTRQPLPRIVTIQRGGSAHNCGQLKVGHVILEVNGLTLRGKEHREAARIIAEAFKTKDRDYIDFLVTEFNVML
Experiment: holdup assay
Set-up: key: below the threshold = too weak to quantify, mostly under pKd 3.1 to 4
Details: plain residues with an end cap or a label only (N-terminal biotin on a linker: ado-ado)

Row | pKd | Binder
7 | below the threshold | LSEFKAMDSI [CTNNA1, P35221]

Target: IL16_3, Q14005
Experiment: holdup assay
Set-up: key: below the threshold = too weak to quantify, mostly under pKd 3.1 to 4
Details: plain residues with an end cap or a label only (N-terminal biotin on a linker: ado-ado)

Sequence of IL16_3, Q14005 (Q14005 1107-1207): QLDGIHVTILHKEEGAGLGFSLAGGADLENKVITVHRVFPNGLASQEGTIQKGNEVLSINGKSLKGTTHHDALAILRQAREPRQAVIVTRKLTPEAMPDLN

Row | pKd | Binder
8 | below the threshold | LSEFKAMDSI [CTNNA1, P35221]

Target: T5, CARD11, Q9BXL7
T5 sequence (Q9BXL7 662-765, limits assumed, looked up): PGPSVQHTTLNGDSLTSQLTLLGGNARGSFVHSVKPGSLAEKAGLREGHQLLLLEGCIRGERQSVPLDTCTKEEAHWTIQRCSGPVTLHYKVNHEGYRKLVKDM
Experiment: holdup assay
Set-up: key: below the threshold = too weak to quantify, mostly under pKd 3.1 to 4
Details: plain residues with an end cap or a label only (N-terminal biotin on a linker: ado-ado)

Row | pKd | Binder
9 | below the threshold | LSEFKAMDSI [CTNNA1, P35221]

Target: T6, NHERF3_1, Q5T2W1
T6 sequence (Q5T2W1 4-100, limits assumed, looked up): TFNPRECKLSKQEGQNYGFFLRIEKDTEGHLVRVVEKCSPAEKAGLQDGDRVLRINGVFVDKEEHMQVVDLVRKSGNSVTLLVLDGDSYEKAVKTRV
Experiment: holdup assay
Set-up: key: below the threshold = too weak to quantify, mostly under pKd 3.1 to 4
Details: plain residues with an end cap or a label only (N-terminal biotin on a linker: ado-ado)

Row | pKd | Binder
10 | below the threshold | LSEFKAMDSI [CTNNA1, P35221]

Target: GRIP2_5, Q9C0E4
Experiment: holdup assay
Set-up: key: below the threshold = too weak to quantify, mostly under pKd 3.1 to 4
Details: plain residues with an end cap or a label only (N-terminal biotin on a linker: ado-ado)

Sequence of GRIP2_5, Q9C0E4 (Q9C0E4 544-642): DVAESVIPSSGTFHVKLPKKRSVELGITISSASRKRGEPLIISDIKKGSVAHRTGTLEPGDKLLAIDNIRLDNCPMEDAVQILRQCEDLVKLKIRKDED

Row | pKd | Binder
11 | below the threshold | LSEFKAMDSI [CTNNA1, P35221]

Target: MAST1, Q9Y2H9
Experiment: holdup assay
Set-up: key: below the threshold = too weak to quantify, mostly under pKd 3.1 to 4
Details: plain residues with an end cap or a label only (N-terminal biotin on a linker: ado-ado)

Sequence of MAST1, Q9Y2H9 (Q9Y2H9 962-1065): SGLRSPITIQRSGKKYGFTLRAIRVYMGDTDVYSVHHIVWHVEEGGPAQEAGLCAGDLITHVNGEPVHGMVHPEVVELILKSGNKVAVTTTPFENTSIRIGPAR

Row | pKd | Binder
12 | below the threshold | LSEFKAMDSI [CTNNA1, P35221]

Target: DLG2_3, Q15700
Experiment: holdup assay
Set-up: key: below the threshold = too weak to quantify, mostly under pKd 3.1 to 4
Details: plain residues with an end cap or a label only (N-terminal biotin on a linker: ado-ado)

Row | pKd | Binder
13 | below the threshold | LSEFKAMDSI [CTNNA1, P35221]

Target: GIPC2, Q8TF65
Experiment: holdup assay
Set-up: key: below the threshold = too weak to quantify, mostly under pKd 3.1 to 4
Details: plain residues with an end cap or a label only (N-terminal biotin on a linker: ado-ado)

Sequence of GIPC2, Q8TF65 (Q8TF65 112-203): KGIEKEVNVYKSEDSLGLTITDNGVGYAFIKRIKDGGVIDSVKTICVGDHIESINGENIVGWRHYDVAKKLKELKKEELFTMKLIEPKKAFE

Row | pKd | Binder
14 | below the threshold | LSEFKAMDSI [CTNNA1, P35221]

Target: GRID2IP_2, A4D2P6
Experiment: holdup assay
Set-up: key: below the threshold = too weak to quantify, mostly under pKd 3.1 to 4
Details: plain residues with an end cap or a label only (N-terminal biotin on a linker: ado-ado)

Sequence of GRID2IP_2, A4D2P6 (A4D2P6 272-370): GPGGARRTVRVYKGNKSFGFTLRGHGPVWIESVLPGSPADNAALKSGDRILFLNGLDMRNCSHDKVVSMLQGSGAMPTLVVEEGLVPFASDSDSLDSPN

Row | pKd | Binder
15 | below the threshold | LSEFKAMDSI [CTNNA1, P35221]

Target: T7, SIPA1L2, Q9P2F8
T7 sequence (Q9P2F8 945-1036, limits assumed, looked up): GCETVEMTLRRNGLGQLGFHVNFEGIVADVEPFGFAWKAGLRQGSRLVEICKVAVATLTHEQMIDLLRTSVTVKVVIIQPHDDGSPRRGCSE
Experiment: holdup assay
Set-up: key: below the threshold = too weak to quantify, mostly under pKd 3.1 to 4
Details: plain residues with an end cap or a label only (N-terminal biotin on a linker: ado-ado)

Row | pKd | Binder
16 | below the threshold | LSEFKAMDSI [CTNNA1, P35221]

Target: T8, LIN7A, O14910
T8 sequence (O14910 103-200, limits assumed, looked up): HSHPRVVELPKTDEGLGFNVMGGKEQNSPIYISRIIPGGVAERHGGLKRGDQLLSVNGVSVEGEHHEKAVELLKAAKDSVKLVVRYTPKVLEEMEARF
Experiment: holdup assay
Set-up: key: below the threshold = too weak to quantify, mostly under pKd 3.1 to 4
Details: plain residues with an end cap or a label only (N-terminal biotin on a linker: ado-ado)

Row | pKd | Binder
17 | below the threshold | LSEFKAMDSI [CTNNA1, P35221]

Target: T9, NHERF3_4, Q5T2W1
T9 sequence (Q5T2W1 373-468, limits assumed, looked up): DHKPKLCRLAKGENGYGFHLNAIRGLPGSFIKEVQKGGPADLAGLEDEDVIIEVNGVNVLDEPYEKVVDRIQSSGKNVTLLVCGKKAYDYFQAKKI
Experiment: holdup assay
Set-up: key: below the threshold = too weak to quantify, mostly under pKd 3.1 to 4
Details: plain residues with an end cap or a label only (N-terminal biotin on a linker: ado-ado)

Row | pKd | Binder
18 | below the threshold | LSEFKAMDSI [CTNNA1, P35221]

Target: T10, PDZD2_2, O15018
T10 sequence (O15018 329-429, limits assumed, looked up): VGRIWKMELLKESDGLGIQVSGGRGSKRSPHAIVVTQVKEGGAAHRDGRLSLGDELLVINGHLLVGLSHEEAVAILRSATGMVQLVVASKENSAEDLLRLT
Experiment: holdup assay
Set-up: key: below the threshold = too weak to quantify, mostly under pKd 3.1 to 4
Details: plain residues with an end cap or a label only (N-terminal biotin on a linker: ado-ado)

Row | pKd | Binder
19 | below the threshold | LSEFKAMDSI [CTNNA1, P35221]

Target: MAGI2_2, Q86UL8
Experiment: holdup assay
Set-up: key: below the threshold = too weak to quantify, mostly under pKd 3.1 to 4
Details: plain residues with an end cap or a label only (N-terminal biotin on a linker: ado-ado)

Sequence of MAGI2_2, Q86UL8 (Q86UL8 410-522): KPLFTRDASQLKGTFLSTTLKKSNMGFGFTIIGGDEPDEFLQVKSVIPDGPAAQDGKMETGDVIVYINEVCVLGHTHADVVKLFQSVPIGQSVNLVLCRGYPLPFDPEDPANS

Row | pKd | Binder
20 | below the threshold | LSEFKAMDSI [CTNNA1, P35221]

Target: T11, DFNB31_2, Q9P202
T11 sequence (Q9P202 274-371, limits assumed, looked up): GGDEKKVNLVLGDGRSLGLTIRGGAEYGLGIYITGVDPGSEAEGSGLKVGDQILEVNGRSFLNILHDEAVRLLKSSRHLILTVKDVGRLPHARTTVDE
Experiment: holdup assay
Set-up: key: below the threshold = too weak to quantify, mostly under pKd 3.1 to 4
Details: plain residues with an end cap or a label only (N-terminal biotin on a linker: ado-ado)

Row | pKd | Binder
21 | below the threshold | LSEFKAMDSI [CTNNA1, P35221]

Target: FRMPD2_3, Q68DX3
Experiment: holdup assay
Set-up: key: below the threshold = too weak to quantify, mostly under pKd 3.1 to 4
Details: plain residues with an end cap or a label only (N-terminal biotin on a linker: ado-ado)

Sequence of FRMPD2_3, Q68DX3 (Q68DX3 1073-1166): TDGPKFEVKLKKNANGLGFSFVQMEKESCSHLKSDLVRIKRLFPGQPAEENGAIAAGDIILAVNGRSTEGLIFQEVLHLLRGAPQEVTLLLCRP

Row | pKd | Binder
22 | below the threshold | LSEFKAMDSI [CTNNA1, P35221]

Target: GRASP, Q7Z6J2
Experiment: holdup assay
Set-up: key: below the threshold = too weak to quantify, mostly under pKd 3.1 to 4
Details: plain residues with an end cap or a label only (N-terminal biotin on a linker: ado-ado)

Sequence of GRASP, Q7Z6J2 (Q7Z6J2 96-193): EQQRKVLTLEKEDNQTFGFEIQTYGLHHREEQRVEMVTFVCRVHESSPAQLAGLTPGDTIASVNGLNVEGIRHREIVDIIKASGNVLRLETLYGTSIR

Row | pKd | Binder
23 | below the threshold | LSEFKAMDSI [CTNNA1, P35221]

Target: T12, PCLO, Q9Y6V0
T12 sequence (Q9Y6V0 4491-4600, limits assumed, looked up): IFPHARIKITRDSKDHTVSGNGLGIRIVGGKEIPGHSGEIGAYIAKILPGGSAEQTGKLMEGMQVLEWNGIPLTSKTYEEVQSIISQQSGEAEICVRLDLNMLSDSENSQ
Experiment: holdup assay
Set-up: key: below the threshold = too weak to quantify, mostly under pKd 3.1 to 4
Details: plain residues with an end cap or a label only (N-terminal biotin on a linker: ado-ado)

Row | pKd | Binder
24 | below the threshold | LSEFKAMDSI [CTNNA1, P35221]

Target: FRMPD2_2, Q68DX3
Experiment: holdup assay
Set-up: key: below the threshold = too weak to quantify, mostly under pKd 3.1 to 4
Details: plain residues with an end cap or a label only (N-terminal biotin on a linker: ado-ado)

Sequence of FRMPD2_2, Q68DX3 (Q68DX3 944-1038): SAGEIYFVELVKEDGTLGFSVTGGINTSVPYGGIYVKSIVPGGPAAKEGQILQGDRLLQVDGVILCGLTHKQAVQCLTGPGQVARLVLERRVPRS

Row | pKd | Binder
25 | below the threshold | LSEFKAMDSI [CTNNA1, P35221]

Target: NHERF2_2, Q15599
Experiment: holdup assay
Set-up: key: below the threshold = too weak to quantify, mostly under pKd 3.1 to 4
Details: plain residues with an end cap or a label only (N-terminal biotin on a linker: ado-ado)

Sequence of NHERF2_2, Q15599 (Q15599 142-238): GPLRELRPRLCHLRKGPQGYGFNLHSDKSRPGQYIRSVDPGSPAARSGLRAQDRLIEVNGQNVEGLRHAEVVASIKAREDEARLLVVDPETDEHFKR

Row | pKd | Binder
26 | below the threshold | LSEFKAMDSI [CTNNA1, P35221]
